Measurements published in patent US20250320294A1.

Key:
[1] = target: human-CD45RO-ECD-His (human) (UniProt P08575); test: SPR, captured human-CD45RO-ECD-His, 1:1 binding
[2] = target: human-CD45RO-ECD-His (human) (UniProt P08575); test: ELISA, human-CD45RO-ECD-His-coated plates
[3] = target: human-CD45RO-ECD-His (human) (UniProt P08575); test: SPR, captured human-CD45RO-ECD-His, 1:1 binding; row label printed 'Clone 023' a second time, taken as clone 028 by the order in paragraph 382

Kd [1] [nM]	koff [1] [s⁻¹]	kon [1] [M⁻¹ s⁻¹]	EC50 [2] [nM]	Kd [3] [nM]	koff [3] [s⁻¹]	kon [3] [M⁻¹ s⁻¹]	Binder
3.72	0.000282	75800	0.0734	–	–	–	anti-CD45 antibody clone 027 (antibody, V domains shown) VH: QVQLQQSAPELARPGASVRMSCKASGYTFTTYTMNWLTQRPGQGLEWIGYINPSSGYTEYNQKFKDKTSLTADTSSSTAYMQLSSLTSEHSAVYYCARASGYSSWFAYWGQGTLVTVSA VL: NIVMTQTPKFLLVSAGDRVTITCKASQSVNNDVGWYQQKPGQSPKLLIYYASNRYTGVPDRFTGSGYGTDFTFTISTVQAEDLAVYFCQQDYNSPLTFGAGTKLELK
–	–	–	0.0319	39.9	0.000591	14800	anti-CD45 antibody clone 028 (antibody, V domains shown) VH: QVQLQQSGAELARPGASVKMSCKASGYTFTFYAILWVKQMPGQGLEWIGFINPSSGYTSYNQKFKDKATLTADKSSSTAYMQLSSLTSEDSAVYYCARDYGLDYWGQGTTLAVSS VL: DIVMTQAAPSVPVTPGESVSISCRSSKSLLHSNGNTYLYWFLQRPGQSPQLLIYRMSNLASGVPDRFSGSGSGTAFTLGISRVEAGDVGVYYCMQHLEYPFTFGSGTKLEIK
79.5	0.000335	4220	0.139	–	–	–	anti-CD45 antibody clone 031 (antibody, V domains shown) VH: DVQLVESGGGLVQPGGSRKLSCAASGFTFSSFGMHWVRQAPEKGLEWVAYINSGSTTFYYADTVKGRFTISRDNPKNTLFLQMTSLGSEDTAMYYCARSATATWTMDYWGQGTSVTVSS VL: NIMMTQSPSSLAVSAGEKVTMSCKSSQSVFVSSNQKNYLAWYQQKPGQSPKLLIYWASTRESAVPDRFTGSGSGTDFTLTIGSVQAEDLAVYYCHQYLSSWTFGGGTKLEIK
–	–	–	0.144	–	–	–	anti-CD45 antibody clone 042 (antibody, V domains shown) VH: EVQLQQSGAELVKPGASVKLSCTASGFNIKDTFMHWVKLRPEQGLEWIGRIDPANGYTKYDPRFQGKATIIADTSSNTAYLQLSSLTSEDTAVYYCASGEYYALDYWGQGTSVTVSS VL: DIVLTQSPASLTVSLGQRATISCRASKSVSTSGYSYMHWYQQKPGQPPKLLIYLASNLESGVPARFSGSGSGTDFTLNIHPVEEEDAATYYCQHNRELPYTFGGGTKLEIK
